Experimental findings from publication PMC9352680, “A comprehensive thermodynamic model for RNA binding by the Saccharomyces cerevisiae Pumilio protein PUF4” are described below.

Broadly, the Kd is the equilibrium constant for the complex coming apart. High values mean lower affinity, low ones higher affinity.

Sequences and labels used below:
B1: Ic_S4_P5E.1_K5.1_C5.1_H5.1_A5.1_[T5C]_[T6C]_F5.1_[T8A]_[T9C]_[A10C]_T5.1 (ssRNA)
RNA: UUUGACAACUGAUCGUUCUUUCUUGUACCAACCUUCUUUCUCGAUCAGUUGUCUUU
B2: Ic_S4_P5E.1_K5.1_C5.1_H5.1_A5.1_[T6C]_F5.1_[T8C]_[T9A]_[A10T]_T5.1 (ssRNA)
RNA: UUUGACAACUGAUCGUUCUUUCUUGUAUCACAUUUCUUUCUCGAUCAGUUGUCUUU
B3: Ic_S4_P5E.1_K5.1_C5.1_H5.1_A5.1_[T5A]_[T6C]_[A7C]_F5.1_[T8G]_[T9C]_[A10C]_T5.1 (ssRNA)
RNA: UUUGACAACUGAUCGUUCUUUCUUGUAACCGCCUUCUUUCUCGAUCAGUUGUCUUU
B4: Ic_S4_P5E.1_K5.1_C5.1_H5.1_A5.1_[T6C]_[A7G]_F5.1_[T8G]_T5.1 (ssRNA)
RNA: UUUGACAACUGAUCGUUCUUUCUUGUAUCGGUAUUCUUUCUCGAUCAGUUGUCUUU
B5: Ic_S4_P5E.1_K5.1_C5.1_H5.1_A5.1_[T5C]_[A7C]_F5.1_[T9C]_[A10G]_T5.1 (ssRNA)
RNA: UUUGACAACUGAUCGUUCUUUCUUGUACUCUCGUUCUUUCUCGAUCAGUUGUCUUU
B6: Ic_S4_P5E.1_K5.1_C5.1_H5.1_A5.1_[T6A]_[A7T]_F5.1_[T8C]_[T9G]_[A10C]_T5.1 (ssRNA)
RNA: UUUGACAACUGAUCGUUCUUUCUUGUAUAUCGCUUCUUUCUCGAUCAGUUGUCUUU
B7: Ic_S4_P5E.1_K5.1_C5.1_H5.1_A5.1_[T6C]_F5.1_[T8A]_[T9A]_[A10C]_T5.1 (ssRNA)
RNA: UUUGACAACUGAUCGUUCUUUCUUGUAUCAAACUUCUUUCUCGAUCAGUUGUCUUU
B8: Ic_S4_P5E.1_K5.1_C5.1_H5.1_A5.1_[T5C]_[T6G]_[A7T]_F5.1_[T8C]_[T9C]_[A10C]_T5.1 (ssRNA)
RNA: UUUGACAACUGAUCGUUCUUUCUUGUACGUCCCUUCUUUCUCGAUCAGUUGUCUUU
B9: Ic_S4_P5E.1_K5.1_C5.1_H5.1_A5.1_[T5G]_[A7T]_F5.1_[T9C]_[A10C]_T5.1 (ssRNA)
RNA: UUUGACAACUGAUCGUUCUUUCUUGUAGUUUCCUUCUUUCUCGAUCAGUUGUCUUU
B10: Ic_S4_P5E.1_K5.1_C5.1_H5.1_A5.1_[T5C]_[T6G]_[A7G]_F5.1_[T9A]_T5.1 (ssRNA)
RNA: UUUGACAACUGAUCGUUCUUUCUUGUACGGUAAUUCUUUCUCGAUCAGUUGUCUUU
B11: Ic_S4_P5E.1_K5.1_C5.1_H5.1_A5.1_[T6C]_[A7T]_F5.1_[T9A]_[A10G]_T5.1 (ssRNA)
RNA: UUUGACAACUGAUCGUUCUUUCUUGUAUCUUAGUUCUUUCUCGAUCAGUUGUCUUU
B12: Ic_S4_P5E.1_K5.1_C5.1_H5.1_A5.1_[T5A]_[A7G]_F5.1_[T8C]_[T9A]_[A10T]_T5.1 (ssRNA)
RNA: UUUGACAACUGAUCGUUCUUUCUUGUAAUGCAUUUCUUUCUCGAUCAGUUGUCUUU
B13: Ic_S4_P5E.1_K5.1_C5.1_H5.1_A5.1_[T5G]_F5.1_[T8A]_[T9C]_[A10C]_T5.1 (ssRNA)
RNA: UUUGACAACUGAUCGUUCUUUCUUGUAGUAACCUUCUUUCUCGAUCAGUUGUCUUU
B14: Ic_S4_P5E.1_K5.1_C5.1_H5.1_A5.1_[T5G]_[A7G]_F5.1_[T8C]_[T9C]_[A10T]_T5.1 (ssRNA)
RNA: UUUGACAACUGAUCGUUCUUUCUUGUAGUGCCUUUCUUUCUCGAUCAGUUGUCUUU
B15: Ic_S4_P5E.1_K5.1_C5.1_H5.1_A5.1_[T5C]_[T6C]_[A7G]_F5.1_[T8A]_[T9C]_[A10C]_T5.1 (ssRNA)
RNA: UUUGACAACUGAUCGUUCUUUCUUGUACCGACCUUCUUUCUCGAUCAGUUGUCUUU
B16: Ic_S4_P5E.1_K5.1_C5.1_H5.1_A5.1_[T6A]_[A7C]_F5.1_[T8C]_[T9G]_[A10T]_T5.1 (ssRNA)
RNA: UUUGACAACUGAUCGUUCUUUCUUGUAUACCGUUUCUUUCUCGAUCAGUUGUCUUU
B17: Ic_S4_P4E.1_K4.1_C4.1_H4.1_A4.1_F4.1_[A9C]_T4.1 (ssRNA)
RNA: UUUGACAACUGAUCGUUCUUUCUUGUAUAUUCUUCUUUCUCGAUCAGUUGUCUUU
B18: Ic_S4_P4E.1_K4.1_C4.1_H4.1_A4.1_F4.1_T4.1 (ssRNA)
RNA: UUUGACAACUGAUCGUUCUUUCUUGUAUAUUAUUCUUUCUCGAUCAGUUGUCUUU
B19: Ib_S1_P4E.1_K4.1_C4.1_H4.1_A4.1_[T5C]_F4.1_[A9C]_T4.1 (ssRNA)
RNA: UCUCUUUGUACAUUCUCUCUU
B20: Ic_S1_P4E.1_K4.1_C4.1_H4.1_A4.1_[T5A]_F4.1_[A9G]_T4.1 (ssRNA)
RNA: UCUCUUUGUAAAUUGUCUCUU

This series has as its target T1, PUF4 RNA-binding domain (Saccharomyces cerevisiae, UniProt P25339 537-888).
T1 sequence: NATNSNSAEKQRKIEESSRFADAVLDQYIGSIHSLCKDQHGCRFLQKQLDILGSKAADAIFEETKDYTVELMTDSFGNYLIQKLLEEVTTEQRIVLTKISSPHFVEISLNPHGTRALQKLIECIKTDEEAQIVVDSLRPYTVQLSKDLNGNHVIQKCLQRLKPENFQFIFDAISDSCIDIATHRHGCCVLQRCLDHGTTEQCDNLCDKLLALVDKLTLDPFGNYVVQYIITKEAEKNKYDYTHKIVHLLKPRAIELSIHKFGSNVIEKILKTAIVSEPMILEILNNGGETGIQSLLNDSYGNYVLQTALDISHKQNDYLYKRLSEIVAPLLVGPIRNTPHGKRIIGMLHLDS
Briefly: Mg; RNA-MaP; 20 mM Na-HEPES pH 7.4, 30 mM KOAc, 0.75 mM MgCl2, 0.1% Tween-20, 5% glycerol, 0.1 mg/mL BSA, 2 mM DTT; 25 C; 0.0125-409.6 nM protein. Particulars: tags: N-His6-TEV cleaved; C-SNAP kept, Cy3B-labelled; label: tethered on chip by stalled RNA polymerase.
In turn, B1 returned a Kd of 424 nM.

For B2, the affinity, expressed as Kd, was 183 nM. Compared with the last molecule, the Kd is about 2.3-fold lower.

In turn, B3 displayed a dissociation constant (Kd) of 1380 nM. Next, B4: 45.9 nM. Next, B5: 120 nM; B6: 21.8 nM; B7: 156 nM. Take B8: the Kd was found to be 114 nM. This Kd and that of the molecule before are within 1.5-fold of each other. The value for B9 was 125 nM. Next, B10: 38.4 nM. B11: the Kd was 3.48 nM. The value for B12 was 844 nM; that for B13 was 1160 nM.

For the molecule B14, the Kd worked out at 956 nM. Take B15: the dissociation constant Kd amounted to 1020 nM.

In turn, B16 registered a Kd of 37.8 nM. The value for B17 was 4.49 nM. The value for B18 was 0.362 nM. The molecule B19 gave a Kd of 5.41 nM. B20 returned a dissociation constant Kd of 10.9 nM.
